The numbers were not newly measured in article PMC7005313, which cites them from elsewhere.

The target in this data set is Tyr99 (UniProt position 100, KDGNGYISAAE). Description: fluorescence. The note with it: not stated (the title of the cited paper refers to calcium and pH dependence).

Regarding Calmodulin (bovine testes) (Bos taurus), the pKa entry is “as low as 7.0”.
